From patent US20180292411A1

Target: S100A9 (human) (UniProt P06702)
Assay: cell-based or functional assay

S100A9 (human), sequence (P06702 whole entry): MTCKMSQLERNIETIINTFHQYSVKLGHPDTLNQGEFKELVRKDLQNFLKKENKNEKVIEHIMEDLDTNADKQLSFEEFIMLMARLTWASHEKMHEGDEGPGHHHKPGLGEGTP

S100A9 high-affinity chimeric (CD33-IgG1) decoy receptor (from UniProt P20138 18-259) (Fc fusion)
colony-forming capacity of MDS BM-MNC (fold greater than controls): < 6.6
